Two molecules from PMC12278352, “Characterization of DnaB–DnaG Interaction in M. tuberculosis Using Small‐Angle X‐ray Scattering‐Based Dissociation Assay” (Chembiochem, 2025) can be followed below.

Broadly, the stoichiometry N is a count of units in the complex or per binding partner. What is called Kd is the equilibrium constant for the complex coming apart. Higher therefore signals lower affinity.

Data set [1] concerns the target DnaG-binding domain of M. tuberculosis DnaB helicase (DnaBn, amino acids 23-166) (M. tuberculosis) (UniProt P9WMR3). Kind of data set: cross-linking; 4 μM DnaGΔZBD with DnaBn (0-15.9 μM), 0.045% glutaraldehyde, 40 mM HEPES pH 7.5, 150 mM NaCl, 10 mM MgCl2, 0.1 mM EDTA, 1 mM DTT, 25 min at 25 °C; SDS-PAGE, Coomassie.
Data set [2] shares this target. Kind of data set: SPR; DnaBn (2.4 μg) immobilised on a GLC chip by amine coupling; soluble DnaGΔZBD 0-600 nM, 30 μL/min; 25 °C; 40 mM HEPES pH 7.5, 200 mM NaCl, 0.1 mM EDTA, 1 mM DTT; steady-state fit; normalised to a BSA channel; three repeats. (In SPR one partner is held on a chip, and binding of the other changes the refractive index at the surface.)
Data set [3] deals with the molecule itself. Kind of data set: cross-linking; 4 μM DnaGΔZBD with 0.011-0.25% glutaraldehyde, 40 mM HEPES pH 7.5, 150 mM NaCl, 1 mM DTT, 0.1 mM EDTA, 0.5% DMSO, 30 min at 25 °C; SDS-PAGE, Coomassie.
The data set “SAXS” deals with the molecule itself. Nature of the data set: SAXS.

On to “DnaG-binding domain of M. tuberculosis DnaB helicase (DnaBn, amino acids 23-166) (from UniProt P9WMR3 23-166) (domain or fragment)”, for which the stoichiometry N in data set [1] was found to be 2.

B1: M. tuberculosis DnaG without the zinc-binding domain (DnaGΔZBD, amino acids 115-639) (domain or fragment)
chain: SRLLAANAAAAAFYAQALQSDEAAPARQYLTERSFDAAAARKFGCGFAPSGWDSLTKHLQRKGFEFEELEAAGLSRQGRHGPMDRFHRRLLWPIRTSAGEVVGFGARRLFDDDAMEAKYVNTPETLLYKKSSVMFGIDLAKRDIAKGHQAVVVEGYTDVMAMHLAGVTTAVASCGTAFGGEHLAMLRRLMMDDSFFRGELIYVFDGDEAGRAAALKAFDGEQKLAGQSFVAVAPDGMDPCDLRLKCGDAALRDLVARRTPLFEFAIRAAIAEMDLDSAEGRVAALRRCVPMVGQIKDPTLRDEYARQLAGWVGWADVAQVIGRVRGEAKRTKHPRLGRLGSTTIARAAQRPTAGPPTELAVRPDPRDPTLWPQREALKSALQYPALAGPVFDALTVEGFTHPEYAAVRAAIDTAGGTSAGLSGAQWLDMVRQQTTSTVTSALISELGVEAIQVDDDKLPRYIAGVLARLQEVWLGRQIAEVKSKLQRMSPIEQGDEYHALFGDLVAMEAYRRSLLEQASGDDLTA
As to B1, in data set [2], the Kd came out at 210 nM. The “monomer:dimer ratio at 0.25% glutaraldehyde” value in data set [3] was roughly 1.5 monomer per dimer. Besides, in “SAXS”, the “stoichiometry N” value came out at 2.
